Measured values: publication PMC4267838

Biological target: histone deacetylase 5 (rat (endogenous in Sprague-Dawley rat cardiac myocytes))
Test: co-IP; HDAC5 precipitated from equal amounts of cardiac myocyte nuclear extracts, 14-3-3 detected by western blotting; cells treated with vehicle, ET1 (0.1 µM), PPAR ligands (troglitazone 1 µM, fenofibrate 10 µM, GW501516 1 µM), with or without shRNA knockdown of DGKζ

- percent of normalized 14-3-3 in HDAC5 precipitates of ET1-treated cells vs. vehicle-treated control (% vs. control): 138
Substance: 14-3-3 chaperone proteins (from UniProt P63102 1-245) (natural protein)
